The values that follow are results of earlier work, collected in PMC5567442.

The target in this series is Kv1.3 (UniProt P22001).
Chain of UniProt P22001 (P22001 whole entry): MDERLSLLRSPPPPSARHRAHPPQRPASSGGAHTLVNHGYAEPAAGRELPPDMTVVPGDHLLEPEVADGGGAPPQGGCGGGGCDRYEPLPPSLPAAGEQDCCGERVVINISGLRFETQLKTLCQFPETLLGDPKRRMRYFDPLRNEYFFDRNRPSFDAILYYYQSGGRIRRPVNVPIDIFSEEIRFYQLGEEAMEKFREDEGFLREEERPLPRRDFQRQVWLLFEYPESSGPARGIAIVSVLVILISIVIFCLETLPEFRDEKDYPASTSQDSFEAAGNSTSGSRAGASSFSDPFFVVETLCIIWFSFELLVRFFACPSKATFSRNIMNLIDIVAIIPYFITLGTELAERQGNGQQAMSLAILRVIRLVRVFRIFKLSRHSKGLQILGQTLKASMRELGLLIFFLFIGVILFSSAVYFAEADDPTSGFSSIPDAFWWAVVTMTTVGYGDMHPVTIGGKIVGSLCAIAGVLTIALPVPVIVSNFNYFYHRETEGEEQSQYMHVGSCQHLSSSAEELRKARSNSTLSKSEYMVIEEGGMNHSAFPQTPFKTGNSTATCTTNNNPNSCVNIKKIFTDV

As to Agitoxin-2 (from UniProt P46111), the equilibrium dissociation constant (Kd) (commonly the constant that tells how readily two partners part at equilibrium) is 0.177 nM.
